Measurements from the supplement of paper PMC7877785.
± gives the uncertainty stated by the source.

Test: self-splicing fitness, log relative to wild type (ln ratio); higher = more splicing; Tetrahymena group I intron in knt gene, E. coli kanamycin selection, DiMSum; sequences stand for … in CUCUCU…GGAGGGAAAAGUUAUCAGGCAUGCACCUGGUAGCUAGUCUUUAAACCAAUAGAUUGCAUCGGUUUAAAAGGCAAGACCGUCAAAUUGCGGGAAAGGGGUCAACAGCCGUUCAGUACCAAGUCUCAGGGGAAACUUUGAGAUGGCCUUGCAAAGGGUAUGGUAAUAAGCUGACGGACAUGGUCCUAACCACGCAGCCAAGUCCUAAGUCAACAGAUCUUCUGUUGAUAUGGAUGCAGUUCACAGACUAAAUGUCGGUCGGGGAAGAUGUAUUCUUCUCAUAAGAUAUAGUCGGACCUCUCCUUAAUGGGAGCUAGCGGAUGAAGUGAUGCAACACUGGAGCCGCUGGGAACUAAUUUGUAUGCGAAAGUAUAUUGAUUAGUUUUGGAGUACUCGUGGUCG
How it was run: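 Pooled colonies went to amplicon sequencing on an Illumina HiSeq 2500 after six replicate transformations. The plates were LB agar with 100 μg/mL carbenicillin, 50 μM IPTG and 0.2% rhamnose, with or without 25 μg/mL kanamycin, incubated overnight at 37°C or 30°C. The E. coli BL21(DE3) library had all eight P1ex-region intron nucleotides randomised, the intron placed in the knt kanamycin-resistance gene on pET-22b(+). DiMSum fitness is the error-weighted combination of replicate fold changes, kanamycin against none, normalised to wild type.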

Sequence: AGCUAGCAAUAUUACGUAGU
- self-splicing fitness (ln) (30 °C): -3.32 ± 0.12
- self-splicing fitness (ln) (37 °C): -2.85 ± 0.14

Sequence: UAGAAGCAAUAUUACGCUUA
- self-splicing fitness (ln) (30 °C): -1.9 ± 0.15
- self-splicing fitness (ln) (37 °C): -0.832 ± 0.14

Sequence: UCCAAGCAAUAUUACGAUCG
- self-splicing fitness (ln) (30 °C): -2.65 ± 0.19
- self-splicing fitness (ln) (37 °C): -3.06 ± 0.24

Sequence: UCGAAGCAAUAUUACGAGAG
- self-splicing fitness (ln) (30 °C): -3.06 ± 0.43
- self-splicing fitness (ln) (37 °C): -1.91 ± 0.25

Sequence: CAUGAGCAAUAUUACGCGUC
- self-splicing fitness (ln) (37 °C): -2.76 ± 0.31

Sequence: AUAGAGCAAUAUUACGUUUU
- self-splicing fitness (ln) (30 °C): -1.43 ± 0.084
- self-splicing fitness (ln) (37 °C): -1.3 ± 0.14

Sequence: GCAAAGCAAUAUUACGUGGA
- self-splicing fitness (ln) (30 °C): -2.07 ± 0.14
- self-splicing fitness (ln) (37 °C): -2.36 ± 0.16

Sequence: UAUAAGCAAUAUUACGAUAA
- self-splicing fitness (ln) (30 °C): -1.17 ± 0.12
- self-splicing fitness (ln) (37 °C): -0.947 ± 0.12

Sequence: UUUGAGCAAUAUUACGACUG
- self-splicing fitness (ln) (30 °C): -2.39 ± 0.36
- self-splicing fitness (ln) (37 °C): -1.03 ± 0.39

Sequence: CAACAGCAAUAUUACGACUU
- self-splicing fitness (ln) (30 °C): -0.591 ± 0.058
- self-splicing fitness (ln) (37 °C): -0.268 ± 0.074

Sequence: CAUGAGCAAUAUUACGAAUU
- self-splicing fitness (ln) (30 °C): -4.16 ± 0.35
- self-splicing fitness (ln) (37 °C): -2.49 ± 0.23

Sequence: UACGAGCAAUAUUACGUUGG
- self-splicing fitness (ln) (37 °C): -2.22 ± 0.26

Sequence: UCUAAGCAAUAUUACGUUAA
- self-splicing fitness (ln) (30 °C): -3.72 ± 0.32
- self-splicing fitness (ln) (37 °C): -1.67 ± 0.2

Sequence: UUUUAGCAAUAUUACGUUCG
- self-splicing fitness (ln) (30 °C): -0.683 ± 0.11
- self-splicing fitness (ln) (37 °C): -1.34 ± 0.12

Sequence: CGGAAGCAAUAUUACGAGGU
- self-splicing fitness (ln) (30 °C): -4.22 ± 0.39
- self-splicing fitness (ln) (37 °C): -2.42 ± 0.35

Sequence: UUCUAGCAAUAUUACGCGCG
- self-splicing fitness (ln) (30 °C): -2.24 ± 0.32
- self-splicing fitness (ln) (37 °C): -1.05 ± 0.18

Sequence: UAGGAGCAAUAUUACGAACA
- self-splicing fitness (ln) (30 °C): -2.08 ± 0.29

Sequence: UCAAAGCAAUAUUACGAACC
- self-splicing fitness (ln) (30 °C): -2.8 ± 0.27
- self-splicing fitness (ln) (37 °C): -0.879 ± 0.28

Sequence: ACCCAGCAAUAUUACGAAAG
- self-splicing fitness (ln) (30 °C): -2.85 ± 0.13
- self-splicing fitness (ln) (37 °C): -1.47 ± 0.17

Sequence: AUCAAGCAAUAUUACGCUAG
- self-splicing fitness (ln) (30 °C): -2.76 ± 0.16
- self-splicing fitness (ln) (37 °C): -1.03 ± 0.13

Sequence: UAAAAGCAAUAUUACGGUAG
- self-splicing fitness (ln) (30 °C): -1.14 ± 0.086
- self-splicing fitness (ln) (37 °C): -0.722 ± 0.097

Sequence: CAUUAGCAAUAUUACGUCUU
- self-splicing fitness (ln) (30 °C): -3.25 ± 0.27
- self-splicing fitness (ln) (37 °C): -2.33 ± 0.21

Sequence: CACAAGCAAUAUUACGUCUA
- self-splicing fitness (ln) (30 °C): -1.42 ± 0.087
- self-splicing fitness (ln) (37 °C): -1.26 ± 0.084

Sequence: UGAUAGCAAUAUUACGGUCU
- self-splicing fitness (ln) (30 °C): -0.913 ± 0.12
- self-splicing fitness (ln) (37 °C): -0.257 ± 0.15

Sequence: GGCCAGCAAUAUUACGAUUG
- self-splicing fitness (ln) (30 °C): -3.73 ± 0.2
- self-splicing fitness (ln) (37 °C): -1.74 ± 0.16

Sequence: CUCGAGCAAUAUUACGUAGC
- self-splicing fitness (ln) (37 °C): -2.19 ± 0.27

Sequence: UUUGAGCAAUAUUACGAAAU
- self-splicing fitness (ln) (30 °C): -3.72 ± 0.2
- self-splicing fitness (ln) (37 °C): -2.09 ± 0.17

Sequence: GGCGAGCAAUAUUACGAAAC
- self-splicing fitness (ln) (30 °C): -2.42 ± 0.15
- self-splicing fitness (ln) (37 °C): -0.0615 ± 0.14

Sequence: AACAAGCAAUAUUACGAGUG
- self-splicing fitness (ln) (30 °C): -0.911 ± 0.049
- self-splicing fitness (ln) (37 °C): -0.0361 ± 0.07

Sequence: GUGCAGCAAUAUUACGAACA
- self-splicing fitness (ln) (30 °C): -1.32 ± 0.22
- self-splicing fitness (ln) (37 °C): -1.25 ± 0.2

Sequence: UCGUAGCAAUAUUACGAGAA
- self-splicing fitness (ln) (30 °C): -2.57 ± 0.49
- self-splicing fitness (ln) (37 °C): -1.61 ± 0.41

Sequence: AUUGAGCAAUAUUACGGCGU
- self-splicing fitness (ln) (30 °C): -0.734 ± 0.11
- self-splicing fitness (ln) (37 °C): 0.573 ± 0.17

Sequence: CACAAGCAAUAUUACGAAGA
- self-splicing fitness (ln) (30 °C): -2.71 ± 0.18
- self-splicing fitness (ln) (37 °C): -2.36 ± 0.2

Sequence: ACUCAGCAAUAUUACGUGCG
- self-splicing fitness (ln) (30 °C): -0.485 ± 0.063
- self-splicing fitness (ln) (37 °C): -0.526 ± 0.078

Sequence: AGUAAGCAAUAUUACGGAAA
- self-splicing fitness (ln) (30 °C): -3.26 ± 0.41
- self-splicing fitness (ln) (37 °C): -0.269 ± 0.23

Sequence: UCCCAGCAAUAUUACGUGGU
- self-splicing fitness (ln) (30 °C): -1.53 ± 0.069
- self-splicing fitness (ln) (37 °C): -0.339 ± 0.071

Sequence: UACCAGCAAUAUUACGAAGG
- self-splicing fitness (ln) (30 °C): -2.22 ± 0.11
- self-splicing fitness (ln) (37 °C): -0.865 ± 0.12

Sequence: AGCAAGCAAUAUUACGAUAG
- self-splicing fitness (ln) (30 °C): -2.98 ± 0.21
- self-splicing fitness (ln) (37 °C): -2.04 ± 0.2

Sequence: UGACAGCAAUAUUACGGGGC
- self-splicing fitness (ln) (30 °C): -2.96 ± 0.13
- self-splicing fitness (ln) (37 °C): -2.56 ± 0.12

Sequence: CUUUAGCAAUAUUACGCGCU
- self-splicing fitness (ln) (30 °C): -3.14 ± 0.25
- self-splicing fitness (ln) (37 °C): -0.469 ± 0.17

Sequence: GCGUAGCAAUAUUACGCGUU
- self-splicing fitness (ln) (30 °C): -1.14 ± 0.19
- self-splicing fitness (ln) (37 °C): -1.55 ± 0.22

Sequence: GACCAGCAAUAUUACGUACA
- self-splicing fitness (ln) (30 °C): -0.568 ± 0.067
- self-splicing fitness (ln) (37 °C): 0.0774 ± 0.083

Sequence: CAUAAGCAAUAUUACGCGAA
- self-splicing fitness (ln) (30 °C): -2.82 ± 0.25
- self-splicing fitness (ln) (37 °C): -2.59 ± 0.34

Sequence: UGUCAGCAAUAUUACGACUU
- self-splicing fitness (ln) (30 °C): -1.14 ± 0.1
- self-splicing fitness (ln) (37 °C): 0.303 ± 0.16

Sequence: GUAGAGCAAUAUUACGUGCC
- self-splicing fitness (ln) (37 °C): -2.12 ± 0.28

Sequence: CGGAAGCAAUAUUACGAUCU
- self-splicing fitness (ln) (30 °C): -1.11 ± 0.12
- self-splicing fitness (ln) (37 °C): -0.942 ± 0.15

Sequence: GCUUAGCAAUAUUACGGUCC
- self-splicing fitness (ln) (30 °C): -0.86 ± 0.17
- self-splicing fitness (ln) (37 °C): 0.242 ± 0.25

Sequence: ACUAAGCAAUAUUACGCCAU
- self-splicing fitness (ln) (37 °C): -2.01 ± 0.29

Sequence: AGACAGCAAUAUUACGAAUG
- self-splicing fitness (ln) (30 °C): -2.45 ± 0.11
- self-splicing fitness (ln) (37 °C): -1.86 ± 0.12

Sequence: GCUCAGCAAUAUUACGAGAA
- self-splicing fitness (ln) (30 °C): -0.468 ± 0.12
- self-splicing fitness (ln) (37 °C): 0.0758 ± 0.099
